Laboratory results published in publication PMC3417467.

B1: cyclopeptide-1 c-(-fEANE-) (peptide)
peptide: FEANE
HELM: PEPTIDE1{[dF].E.A.N.E}$PEPTIDE1,PEPTIDE1,1:R1-5:R2$$$V2.0
SMILES: C[C@@H]1NC(=O)[C@H](CCC(=O)O)NC(=O)[C@@H](Cc2ccccc2)NC(=O)[C@H](CCC(=O)O)NC(=O)[C@H](CC(N)=O)NC1=O
B2: cyclopeptide-7 c-(-RGDlA-) (peptide)
peptide: RGDLA
HELM: PEPTIDE1{R.G.D.[dL].A}$PEPTIDE1,PEPTIDE1,1:R1-5:R2$$$V2.0
SMILES: CC(C)C[C@H]1NC(=O)[C@H](CC(=O)O)NC(=O)CNC(=O)[C@H](CCCNC(=N)N)NC(=O)[C@H](C)NC1=O
B3: cyclopeptide-5 c-(-FEANe-) (peptide)
peptide: FEANE
HELM: PEPTIDE1{F.E.A.N.[dE]}$PEPTIDE1,PEPTIDE1,1:R1-5:R2$$$V2.0
SMILES: C[C@@H]1NC(=O)[C@H](CCC(=O)O)NC(=O)[C@H](Cc2ccccc2)NC(=O)[C@@H](CCC(=O)O)NC(=O)[C@H](CC(N)=O)NC1=O
B4: cyclopeptide-2 c-(-FeANE-) (peptide)
peptide: FEANE
HELM: PEPTIDE1{F.[dE].A.N.E}$PEPTIDE1,PEPTIDE1,1:R1-5:R2$$$V2.0
SMILES: C[C@@H]1NC(=O)[C@@H](CCC(=O)O)NC(=O)[C@H](Cc2ccccc2)NC(=O)[C@H](CCC(=O)O)NC(=O)[C@H](CC(N)=O)NC1=O
B5: cyclopeptide-3 c-(-FEaNE-) (peptide)
peptide: FEANE
HELM: PEPTIDE1{F.E.[dA].N.E}$PEPTIDE1,PEPTIDE1,1:R1-5:R2$$$V2.0
SMILES: C[C@H]1NC(=O)[C@H](CCC(=O)O)NC(=O)[C@H](Cc2ccccc2)NC(=O)[C@H](CCC(=O)O)NC(=O)[C@H](CC(N)=O)NC1=O
B6: cyclopeptide-4 c-(-FEAnE-) (peptide)
peptide: FEANE
HELM: PEPTIDE1{F.E.A.[dN].E}$PEPTIDE1,PEPTIDE1,1:R1-5:R2$$$V2.0
SMILES: C[C@@H]1NC(=O)[C@H](CCC(=O)O)NC(=O)[C@H](Cc2ccccc2)NC(=O)[C@H](CCC(=O)O)NC(=O)[C@@H](CC(N)=O)NC1=O
B7: linear peptide 6 (…) (peptide)
peptide: ANFEANELFFISEDV

These binders were tested against integrins on WM-115 cells (mainly integrin α5β1, αVβ3, and αVβ5) (assay: competitive cell adhesion assay).

Row | Binder | IC50 [µM]
1 | B1 | > 1000
2 | B2 | 2.39
3 | B3 | > 1000
4 | B4 | > 1000
5 | B5 | > 1000
6 | B6 | > 1000
7 | B7 | > 1000

Molecular target: integrins on WM-115 cells (mainly integrin α5β1, αVβ3, and αVβ5)
Experiment: competitive cell adhesion assay
Remark: another data set of the same source

Row | Binder | IC50 [µM]
8 | B1 | > 1000
9 | B3 | > 1000
10 | B4 | 54 to 430
11 | B5 | > 1000
12 | B6 | > 1000
13 | B7 | 239

Molecular target: integrins on WM-115 cells (mainly integrin α5β1, αVβ3, and αVβ5)
Experiment: competitive cell adhesion assay
Remark: another data set of the same source

Row | Binder | IC50 [µM]
14 | B1 | 43 to 340
15 | B3 | > 1000
16 | B4 | 30 to 530
17 | B5 | > 1000
18 | B6 | > 1000
19 | B7 | 9

Molecular target: integrins on WM-115 cells (mainly integrin α5β1, αVβ3, and αVβ5)
Experiment: competitive cell adhesion assay
Remark: another data set of the same source

Row | Binder | IC50 [µM]
20 | B2 | 0.67

Molecular target: integrins on WM-115 cells (mainly integrin α5β1, αVβ3, and αVβ5)
Experiment: competitive cell adhesion assay
Remark: another data set of the same source

Row | Binder | IC50 [µM]
21 | B2 | 0.88

Molecular target: integrins on WM-115 cells (mainly integrin α5β1, αVβ3, and αVβ5)
Experiment: competitive cell adhesion assay
Remark: another data set of the same source

Row | Binder | IC50 [µM]
22 | B2 | 1.65
